According to article doi:10.1101/2025.09.02.673809:

Target: HLA-DQ8 molecule (DQA1*03:01-DQB1*03:02) (human)
Assay: ProImmune REVEAL MHC-peptide binding assay

fold affinity against the reference peptide (T1D auto-antigen …): 41 fold
Binder: EALYLVCGNAVEVLK [insulin-derived 15-mer …]
